Laboratory results published in publication PMC2949602, “Genome-wide search identifies Ccnd2 as a direct transcriptional target of Elf5 in mouse mammary gland”.

T1: GST-Elf5 MT2 (R219A) (mouse, UniProt Q8VDK3 1-253, R219A)
T1 sequence: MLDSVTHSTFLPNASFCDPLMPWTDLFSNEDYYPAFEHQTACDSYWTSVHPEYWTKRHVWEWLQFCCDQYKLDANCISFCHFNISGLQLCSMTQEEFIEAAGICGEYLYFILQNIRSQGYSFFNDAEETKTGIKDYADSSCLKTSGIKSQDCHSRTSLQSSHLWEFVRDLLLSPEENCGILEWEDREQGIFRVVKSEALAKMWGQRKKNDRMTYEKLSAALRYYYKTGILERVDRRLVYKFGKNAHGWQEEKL

T2: GST-Elf5 MT1 (K216A) (mouse, UniProt Q8VDK3 1-253, K216A)
T2 sequence: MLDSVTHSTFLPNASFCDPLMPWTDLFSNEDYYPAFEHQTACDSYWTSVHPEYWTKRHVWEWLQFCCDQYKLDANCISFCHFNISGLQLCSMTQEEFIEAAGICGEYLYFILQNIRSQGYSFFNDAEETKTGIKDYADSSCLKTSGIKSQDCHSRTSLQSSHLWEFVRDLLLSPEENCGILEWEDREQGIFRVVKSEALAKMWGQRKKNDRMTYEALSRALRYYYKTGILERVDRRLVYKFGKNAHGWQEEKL


How the values were obtained:
GST-Elf5 MT2 (R219A) = target: T1, GST-Elf5 MT2 (R219A); experiment: EMSA; 20 mM HEPES pH 7.9, 75 mM KCl, 2.5 mM MgCl2, 1 mM EDTA, 0.5 mM DTT, 10% glycerol, 1 ug poly(dA-dT), room temperature; 5% nondenaturing PAGE; conditions: protein: recombinant; label: 32P (Klenow fill-in with dCTP); 5' overhangs 3 nt each end as annealed, filled in by Klenow
GST-Elf5 MT1 (K216A) = target: T2, GST-Elf5 MT1 (K216A); experiment: as above; conditions: protein: recombinant; label: 32P (Klenow fill-in with dCTP); 5' overhangs 3 nt each end as annealed, filled in by Klenow

Binder	binding result (GST-Elf5 MT2 (R219A))	binding result (GST-Elf5 MT1 (K216A))
Cyclin D2 upstream region 1 oligo (dsDNA) DNA 1: CAGATTAGAAAGGAAAAGGATTACAGTAGT DNA 2: GTGACTACTGTAATCCTTTTCCTTTCTAAT	no binding	no binding
Cyclin D2 upstream region 2 oligo (dsDNA) DNA 1: GAGCCAGCAGGATGCTTGACATTCCAGCTGCTGG DNA 2: AGGCCAGCAGCTGGAATGTCAAGCATCCTGCTGG	no binding	no binding
